Measurements: patent US20230201365A1, “MODIFIED CD20 ANTIBODIES AND USES THEREOF” (Bright Peak Therapeutics AG, priority 2021, published 2023)

How the values were obtained:
Human FcRn = biological target: T1, Human FcRn (Homo sapiens, UniProt P55899); experiment: FcRn binding AlphaLISA; conditions: hu FcRN binding aLISA
T1 construct: purchased PerkinElmer AL3095C
Protocol: Human IgG Conjugated Acceptor Beads (2×) and Streptavidin (SA) Donor Beads were diluted to reach final concentrations of 5 μg/ml.
To wells in the assay plates, 10 ul of diluted antibodies, 10 ul of diluted FcRn, 20 ul of human IgG conjugated Acceptor beads, and SA-Donor beads were added.

hu CD20 = biological target: T2, hu CD20 (Homo sapiens, UniProt P11836); experiment: CD20 binding ELISA
T2 sequence (P11836 1-297): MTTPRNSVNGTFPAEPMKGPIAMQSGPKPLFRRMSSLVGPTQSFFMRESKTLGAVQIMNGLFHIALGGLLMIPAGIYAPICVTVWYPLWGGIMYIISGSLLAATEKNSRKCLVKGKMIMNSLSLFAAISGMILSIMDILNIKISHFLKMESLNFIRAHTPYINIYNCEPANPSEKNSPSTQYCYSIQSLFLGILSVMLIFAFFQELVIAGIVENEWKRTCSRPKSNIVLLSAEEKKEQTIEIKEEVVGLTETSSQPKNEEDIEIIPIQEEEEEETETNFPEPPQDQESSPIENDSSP
Protocol: The interaction of the unmodified and of conjugated anti-CD20 antibodies with CD20 were measured by ELISA assay. […] Plates were washed four times with 100 μl of PBS-0.02% Tween20. and blocked with 25 μl of PBS-0.02% Tween20-1% BSA at 37° C. with shaking at 600 RPM, for 1 h. Plates were then washed four times with 100 μl of PBS-0.02% Tween20. […] Plates were then washed four times with 100 μl of PBS-0.02% Tween20. 25 ul of Streptavidin-Horseradish peroxidase (#RABHRP3, Merck, Buchs, Switzerland) diluted at 1:500 into PBS-0.02% Tween20-0.1% BSA were added to each well and incubated at room temperature for 30 min. Plates were then washed four times with 100 μl of PBS-0.02% Tween20. […] ELISA signal is then measured at 450 nm on an ENSPIRE® plate reader from Perkin Elmer (Schwerzenbach, Switzerland).

Raji cells = experiment: Antibody-dependent cell-mediated cytotoxicity (ADCC) bioassay; assay type: cell-based, human; conditions: 25:1 PBMC:Raji, FIG. 6
Protocol: To determine the effectiveness of antiCD20 IL-2 immunoconjugates in activating immune cell function, an ADCC assay was employed. Human peripheral blood mononuclear cells (hPBMC) and target cells (Raji cells expressing HiBiT) were purchased from Promega as a kit (PBMC ADCC Bioassay Kit Raji, # CS3055A17). […] Once the cells recovered cells were counted. Raji cells were suspended at a concentration of 2×10^5 per ml, and PBMCs were suspended at 5×10^6 per ml. The killing assay was conducted in a 96 well U-bottom plate. Cells were seeded at a ratio of 25:1 Effector cell (PBMC):antiCD20 Target cell (Raji). Plates were incubated for 24 hours at 37 C in 5% CO2. Cell mixtures were treated with serial dilutions of immunocytokines to induce ADCC and placed back in the incubator for an additional 24 hours. Tissue culture supernatants from wells were assayed using Nano-Glo® HiBiT Extracellular assay detection kit.

B cells = experiment: B cell depletion in hCD20 transgenic C57BL/6 mice; assay type: in vivo; conditions: 5 mg/kg single intraperitoneal injection on Day 0, FIG. 7A
Protocol: Animal Groupings and administration: 9 animals were randomly enrolled into three study groups based on the body weight 5 days before administration (day −5). Each group consists of 3 mice. Single doses were administered 5 day post grouping (Day 0).
Sample collection: 100 μL whole blood were collected with anticoagulant (DETA-2K) for flow cytometry. Collection time points: Day −5, Day 6, Day 9, Day 14, and Day 21.
Flow cytometry: Preparation of single cell suspensions: For the treatment of spleen samples, the spleen was transferred to a 35 mm culture dish, and then ground with a sterile syringe tail. The cells were washed and centrifuged at 500 g for 5 min at 4° C. The cell pellet was resuspended with 2 ml of red blood cell lysis buffer and incubated for 5-8 min at room temperature. A volume 10 mL of PBS was added to the cell suspension to stop the lysing, and centrifuged at 500 g for 5 min at 4° C. The cells were counted using a blood cell counting chamber. For the treatment of the blood samples, 100 μL of the blood sample was transferred into a 1.5 mL EP tube. To this, 1.4 mL of red blood cell lysis buffer is added, and mixed by inversion. The lysis is carried out for 5-8 min at room temperature. The lysed blood sample is centrifuge at 500 g for 5 min at 4° C. The resultant cell pellet is resuspended in PBS to the required volume for flow cytometry.
The flow cytometry protocol is as follows. […]

hu FcγRIII (CD16a) = biological target: T3, hu FcγRIII (CD16a) (Homo sapiens, UniProt P08637); experiment: Fc gamma receptor binding ELISA
T3 construct: purchased R&D Systems 4325-FC-050
T3 sequence (P08637 17-254): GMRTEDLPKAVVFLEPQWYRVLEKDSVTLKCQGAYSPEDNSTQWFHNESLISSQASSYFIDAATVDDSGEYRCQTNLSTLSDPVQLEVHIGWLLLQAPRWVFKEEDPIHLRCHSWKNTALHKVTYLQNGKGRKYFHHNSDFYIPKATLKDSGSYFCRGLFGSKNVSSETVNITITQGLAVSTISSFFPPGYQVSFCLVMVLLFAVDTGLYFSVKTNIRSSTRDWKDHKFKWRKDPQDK
Protocol: (§1) To analyze Fc Receptor gamma binding test molecules were diluted to 2.5 ug/ml in PBS and plates were coated overnight at 4° C. The next day the assay plates were washed four times with 100 ul of wash buffer: PBS+0.02% Tween 20 and blocked with PBS+1% BSA, for one hour at 37° C., with shaking at 600 RPM. The blocked plates were then washed four times with 100 ul wash buffer. Diluted FcRgamma (Reagents listed, below) was freshly diluted in wash buffer. Plates were then incubated with 25 ul of diluted Fc for two hours with shaking at 600 RPMs, then washed with 100 ul wash buffer, four times. The wells were then incubated with 25 ul of either 1:500 diluted streptavidin-Horseradish peroxidase (HRP) for detection of human FcgR or 1:500 diluted Anti-HIS tag antibody-HRP in wash buffer. The HPR detection molecules were incubated in the wells at room temperature for one hour with shaking at 600 RPMs. Plate wells were washed with 100 ul of wash buffer, four times. Plates were detected using the chromogenic HRP substrate 3,3′,5,5;-tetramethylbenzidine (TMB). Samples were read using a spectrophotometer plate reader with OD set to 450 nm.

hu FcγRIIb (CD32b) = biological target: T4, hu FcγRIIb (CD32b) (Homo sapiens, UniProt P31994); experiment: Fc gamma receptor binding ELISA
T4 construct: Avi-tag; purchased R&D Systems AVI1875-050
T4 sequence (P31994 43-310): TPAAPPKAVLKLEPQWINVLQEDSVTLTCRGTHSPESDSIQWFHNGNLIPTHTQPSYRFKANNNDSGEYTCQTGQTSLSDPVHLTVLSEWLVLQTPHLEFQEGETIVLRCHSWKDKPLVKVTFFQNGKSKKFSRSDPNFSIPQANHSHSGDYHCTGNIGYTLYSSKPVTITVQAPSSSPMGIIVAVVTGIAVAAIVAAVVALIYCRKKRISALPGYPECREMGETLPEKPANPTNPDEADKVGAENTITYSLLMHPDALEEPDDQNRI
Protocol: as §1

mu FcγRIV (CD16-2) = biological target: T5, mu FcγRIV (CD16-2) (Mus musculus, UniProt A0A0B4J1G0); experiment: Fc gamma receptor binding ELISA; conditions: mu FcγRIV (CD16-2) ELISA
T5 construct: purchased R&D Systems 1974-CD-050
T5 sequence (A0A0B4J1G0 21-249): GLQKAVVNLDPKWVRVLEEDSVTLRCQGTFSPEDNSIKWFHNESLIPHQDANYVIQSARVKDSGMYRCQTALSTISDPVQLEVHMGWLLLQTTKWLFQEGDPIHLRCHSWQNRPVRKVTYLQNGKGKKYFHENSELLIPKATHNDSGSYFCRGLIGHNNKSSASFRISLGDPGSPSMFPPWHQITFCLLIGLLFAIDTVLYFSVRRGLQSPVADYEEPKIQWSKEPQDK
Protocol: as §1

mu FcγRI (CD64) = biological target: T6, mu FcγRI (CD64) (Mus musculus, UniProt P26151); experiment: Fc gamma receptor binding ELISA
T6 construct: purchased R&D Systems 2074-FC-050
T6 sequence (P26151 25-404): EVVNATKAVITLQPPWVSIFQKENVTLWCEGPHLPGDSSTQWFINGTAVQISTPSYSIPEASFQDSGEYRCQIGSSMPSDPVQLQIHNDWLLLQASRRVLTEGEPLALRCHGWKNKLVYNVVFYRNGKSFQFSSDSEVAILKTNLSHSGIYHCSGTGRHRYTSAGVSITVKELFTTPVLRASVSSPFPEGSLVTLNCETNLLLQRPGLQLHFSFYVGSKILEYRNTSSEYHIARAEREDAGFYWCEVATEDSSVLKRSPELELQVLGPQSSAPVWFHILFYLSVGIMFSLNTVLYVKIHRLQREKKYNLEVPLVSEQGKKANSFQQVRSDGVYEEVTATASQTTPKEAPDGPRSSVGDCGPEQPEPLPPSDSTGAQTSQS
Protocol: as §1

hu FcγRI (CD64) = biological target: T7, hu FcγRI (CD64) (Homo sapiens, UniProt P12314); experiment: Fc gamma receptor binding ELISA
T7 construct: purchased R&D Systems 1257-FC-050
T7 sequence (P12314 16-374): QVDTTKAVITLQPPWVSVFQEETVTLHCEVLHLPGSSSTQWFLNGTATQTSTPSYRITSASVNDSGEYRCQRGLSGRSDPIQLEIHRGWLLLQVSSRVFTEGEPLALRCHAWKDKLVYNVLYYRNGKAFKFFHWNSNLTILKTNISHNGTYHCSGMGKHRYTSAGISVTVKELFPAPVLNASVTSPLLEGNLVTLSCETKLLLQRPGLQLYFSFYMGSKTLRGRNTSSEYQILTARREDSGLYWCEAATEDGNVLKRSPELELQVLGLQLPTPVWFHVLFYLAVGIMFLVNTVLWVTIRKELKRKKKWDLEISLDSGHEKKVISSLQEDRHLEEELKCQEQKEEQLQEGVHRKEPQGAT
Protocol: as §1

mu FcγRIII (CD16) = biological target: T8, mu FcγRIII (CD16) (Mus musculus, UniProt P08508); experiment: Fc gamma receptor binding ELISA
T8 construct: purchased R&D Systems 1960-FC-050
T8 sequence (P08508 31-261): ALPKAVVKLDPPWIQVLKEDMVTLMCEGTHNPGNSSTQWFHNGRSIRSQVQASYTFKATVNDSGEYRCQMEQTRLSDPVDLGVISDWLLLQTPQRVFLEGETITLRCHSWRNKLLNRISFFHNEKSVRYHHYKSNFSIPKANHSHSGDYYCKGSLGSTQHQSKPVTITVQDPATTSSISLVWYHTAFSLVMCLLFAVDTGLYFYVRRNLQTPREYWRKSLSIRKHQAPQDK
Protocol: as §1

EC50 (Human FcRn): 4 nM
EC50 (hu CD20): 0.08 nM
EC50 (hu FcγRIII (CD16a)): 185 nM
EC50 (hu FcγRIIb (CD32b)): 880 nM
EC50 (mu FcγRIV (CD16-2)): 20 nM
EC50 (mu FcγRI (CD64)): 35 nM
EC50 (hu FcγRI (CD64)): 0.23 nM
EC50 (mu FcγRIII (CD16)): 133 nM
Substance: Anti-CD20 Antibody: parent anti-CD20 antibody biosimilar Rituximab, unconjugated
ADCC-targeted cell killing of Raji cells (Raji cells): Less cell killing overall
depletion of B cells (B cells): substantial ability to deplete B cells
